From patent publication US5486595A, “Tumor necrosis factor inhibitors” (Centecor, Inc., priority 1994, dated 1996)
Where a SMILES comes first, the peptide text is derived from it.

Target: T1, human TNFα (Homo sapiens, UniProt P01375)
T1 construct: purchased Biosource, Camarillo, Calif
Experiment: p55 Receptor/IgG Fusion Protein Binding Assay (inhibition of TNFα capture by p55-Ig coated plate)
Details: for inhibition of binding of TNFα to p55TNFr-IgG chimeric construct / inhibition at 1000 µM: peptide 1 mM, TNFα 25 ng/ml; for inhibition at 1000 µM: read-out: inhibition of binding of TNFα to p55TNFr-IgG chimeric construct
Description: This assay was designed to identify peptides which bind to human TNFα and thereby prevent the capture of the TNFα by a microtiter plate coated with p55-Ig fusion protein. A constant concentration of human TNFα is preincubated with the test peptide and then incubated on the p55-Ig coated microtiter wells. Bound TNFα is detected using a specific antisera and an alkaline phosphatase-conjugated probe.
A 96-well, U-bottom polyvinylchloride microtiter plate was coated with 50 μl/well of p55-Ig fusion protein at 5 μg/ml in 0.01M sodium phosphate, 0.15M sodium chloride (PBS) by incubation overnight at 4° C. or 2 hours at 37° C. The fusion protein, which consists of a p55 TNF receptor protein portion and an IgG portion, can be produced as disclosed in U.S. application Ser. No. 08/010,406 filed Jan. 29, 1993 which is incorporated herein by reference. The plate was washed three times with 0.05% Tween-20 in PBS, then blocked, by adding 150 μl/well of assay buffer (10 mM N-2-hydroxyethylpiperazine-N'-[…] (HEPES) pH 7.2, containing 0.1% porcine gelatin, 0.1% Tween-80, and 0.01% sodium azide) and continuing incubation for 1 hour at 37° C. or at 4° C. for 1-7 days.
Lyophilized peptides to be tested were weighed in tared 12×75 mm polystyrene tubes and reconstituted to a concentration of 1.2 mM with assay buffer. Each suspension was sonicated in a water bath for 1-5 minutes and vortexed 15-30 seconds to disperse large particles. Serial dilutions of each peptide suspension were prepared using assay buffer in a 96-well polystyrene microtiter plate. Additional wells received Fab fragment of the mouse/human monoclonal anti-human TNFα antibody cA2 (positive control) or assay buffer (negative control). […] The polystyrene dilution plate was then sealed and incubated 1 hour at room temperature on an orbital mixer set at moderate speed.
Following the sample preincubation, blocker was discarded from the p55-Ig coated plate and blotted dry. Aliquots (50 μl) of each peptide or control were transferred into duplicate wells on the p55-Ig coated plate which was then sealed and incubated i hour at 37° C. Duplicate wells containing only assay buffer were included as a plate blank. After incubation the p55-Ig plate was washed three times with 0.05% Tween-20 in PBS.
To detect TNFα captured by the p55-Ig plate, all wells were incubated in succession with polyclonal rabbit anti-human TNFα (Genzyme, Boston, Mass.; 1:500 in assay buffer, 50 μl/well), biotinylated goat anti-rabbit Ig (H&L) (Vector Laboratories, Burlingame, Calif.; 1 μg/ml in assay buffer, 50 μl/well) and streptavidin-alkaline phosphatase conjugate (Pierce, Rockford, Ill.; 1 μg/ml in assay buffer, 50 μl/well). All incubations were for 1 hour at 37° C. and after each incubation the plate was washed three times with 0.05% Tween-20 in PBS. Fifty microliters of alkaline phosphatase substrate solution (alkaline buffer (Sigma, St. Louis, Mo.) diluted 1:500 in deionized water plus one 5 mg tablet of p-nitrophenyl phosphate (Sigma, St. Louis, Mo.) per 5 ml of diluted buffer) was added to all wells and incubation continued for 20 minutes at room temperature. Color development was stopped by adding to all wells 50 μl of 3N sodium hydroxide. The optical density (OD) at 405 nm was measured on a microtiter plate reader (Molecular Devices Vmax plate reader), with the plate blank wells subtracted as background. The activity of each peptide was then expressed as the percent inhibition of TNFα capture by the p55-Ig plate, relative to the amount of TNFα captured in wells containing only assay buffer (negative control), as follows: % inhibition=100-((mean OD peptide/mean OD negative control)×100).
The inhibition of binding of TNFα to p55TNFr-IgG chimeric construct was performed as described above using several embodiments of the invention. The peptides were tested at a concentration of 1 mM.

T1 sequence (P01375 77-233 limits assumed): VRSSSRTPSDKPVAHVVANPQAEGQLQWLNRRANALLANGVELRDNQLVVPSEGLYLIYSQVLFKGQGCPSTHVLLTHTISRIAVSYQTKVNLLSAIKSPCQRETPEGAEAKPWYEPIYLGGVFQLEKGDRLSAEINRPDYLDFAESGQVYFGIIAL

Row | Compound | inhibition of binding of TNFα to p55TNFr-IgG chimeric construct [%] | inhibition at 1000 µM [%] | dose dependent inhibition of TNFα (FIG. 1) (various concentrations of peptide)
1 | SEQ ID NO:50: peptide of the invention that inhibits TNFα; sequence not printed (VAIPGNASRDAVATS) | 29 |  | 
2 | SEQ ID NO:35: peptide of the invention that inhibits TNFα; sequence not printed (VADSAEDSTYTQLWN) | 72 |  | 
3 | SEQ ID NO:48: peptide of the invention that inhibits TNFα; sequence not printed (TDIARPHQIANVVAI) | 27 |  | 
4 | SEQ ID NO:41: peptide of the invention that inhibits TNFα; sequence not printed (EALSAGSRASSDQVE) | 68 |  | 
5 | CC[C@H](C)[C@H](NC(=O)[C@H](CCC(=O)O)NC(=O)[C@@H](NC(=O)[C@H](CCC(N)=O)NC(=O)CNC(=O)[C@H](CCSC)NC(=O)[C@H](CCC(=O)O)NC(=O)[C@@H](N)CCCCN)C(C)C)C(=O)N[C@@H](CO)C(=O)N[C@@H](CO)C(=O)N[C@@H](C)C(=O)N[C@H](C(=O)N[C@H](C(=O)N[C@@H](CC(=O)O)C(=O)N[C@@H](CCCNC(=N)N)C(N)=O)C(C)C)[C@@H](C)O [SEQ ID NO:7] |  | 42 | 
6 | C[C@H](NC(=O)[C@@H](NC(=O)[C@H](Cc1ccccc1)NC(=O)[C@H](CO)NC(=O)CNC(=O)[C@H](CO)NC(=O)[C@H](CCC(=O)O)NC(=O)[C@H](C)NC(=O)[C@H](CCC(=O)O)NC(=O)[C@H](CCCNC(=N)N)NC(=O)[C@H](C)NC(=O)[C@H](CC(=O)O)NC(=O)[C@@H](NC(=O)[C@H](CC(=O)O)NC(=O)[C@@H](N)CCC(N)=O)[C@@H](C)O)[C@@H](C)O)C(N)=O [SEQ ID NO:4, Glutaminyl-aspartyl-threonyl-aspartyl-alanyl-arginyl-glutamyl-alanyl-glutamyl-seryl-glycyl-seryl-phenylalanyl-threonyl-alanine Amide] (H-QDTDAREAESGSFTA-NH2) |  | 53 | 
7 | SEQ ID NO:37: peptide of the invention that inhibits TNFα; sequence not printed (DSTYTQLWNWVPEAL) | 77 |  | 
8 | CC[C@H](C)[C@H](NC(=O)[C@H](CCC(N)=O)NC(=O)[C@@H]1CCCN1C(=O)[C@H](CC(C)C)NC(=O)[C@H](C)NC(=O)[C@H](CC(C)C)NC(=O)[C@H](CCCCN)NC(=O)[C@@H](NC(=O)[C@H](C)NC(=O)[C@H](CCC(=O)O)NC(=O)[C@H](CC(C)C)NC(=O)[C@@H](N)CO)[C@@H](C)O)C(=O)N[C@@H](CCC(=O)O)C(=O)N[C@@H](CC(N)=O)C(=O)N[C@H](C(N)=O)C(C)C [SEQ ID NO:21, Seryl-leucyl-glutamyl-alanyl-threonyl-lysyl-leucyl-alanyl-leucyl-prolyl-glutaminyl-isoleucyl-glutamyl-asparaginyl-valine Amide] (H-SLEATKLALPQIENV-NH2) |  | 50 | 

Further lines, results first:

Row | inhibition of binding of TNFα to p55TNFr-IgG chimeric construct [%] | inhibition at 1000 µM [%] | dose dependent inhibition of TNFα (FIG. 1) (various concentrations of peptide) | Compound
9 | 66 |  |  | SEQ ID NO:46: peptide of the invention that inhibits TNFα; sequence not printed (SNTTSSTDIARPHQI)
10 | 42 |  |  | SEQ ID NO:39: peptide of the invention that inhibits TNFα; sequence not printed (LWNWVPEALSAGSRA)
11 |  | 27 | dose dependent inhibition | CC(=O)N[C@@H](CCC(N)=O)C(=O)N[C@@H](Cc1ccc(O)cc1)C(=O)N[C@@H](CCCNC(=N)N)C(=O)N[C@@H](Cc1c[nH]cn1)C(=O)N[C@@H](Cc1ccc(O)cc1)C(=O)N[C@@H](Cc1c[nH]c2ccccc12)C(=O)N[C@@H](CO)C(=O)N[C@@H](CCC(=O)O)C(=O)N[C@@H](CC(N)=O)C(=O)N[C@@H](CC(C)C)C(=O)N[C@@H](Cc1ccccc1)C(=O)N[C@@H](CCC(N)=O)C(=O)N[C@@H](C)C(=O)N[C@@H](Cc1ccccc1)C(=O)N[C@@H](CC(N)=O)C(N)=O [SEQ ID NO:11, Acetyl-glutaminyl-tyrosyl-arginyl-histidyl-tyrosyl-tryptophyl-seryl-glutamyl-asparaginyl-leucyl-phenylalanyl-glutaminyl-alanyl-phenylalanyl-asparagineAmide]
12 |  | 53 |  | CSCC[C@H](NC(=O)[C@H](CCC(N)=O)NC(=O)[C@H](C)NC(=O)[C@@H](NC(=O)[C@H](CCC(N)=O)NC(=O)[C@H](CC(=O)O)NC(=O)[C@H](Cc1ccc(O)cc1)NC(=O)[C@H](Cc1ccc(O)cc1)NC(=O)[C@H](CCC(=O)O)NC(=O)[C@H](CCCNC(=N)N)NC(=O)[C@H](CC(C)C)NC(=O)[C@@H](N)CCCNC(=N)N)[C@@H](C)O)C(=O)N[C@@H](C)C(=O)N[C@@H](C)C(=O)N[C@@H](CO)C(N)=O [SEQ ID NO:29] (H-RLREYYDQTAQMAAS-NH2)
13 | 63 |  |  | SEQ ID NO:53: peptide of the invention that inhibits TNFα; sequence not printed (DAVATSTSPTRSMAP)
14 |  | 72 |  | C[C@@H](O)[C@H](NC(=O)[C@H](CO)NC(=O)[C@@H]1CCCN1C(=O)[C@H](CCC(=O)O)NC(=O)[C@@H]1CCCN1C(=O)[C@@H](NC(=O)[C@@H]1CCCN1C(=O)[C@H](CCC(N)=O)NC(=O)[C@@H](NC(=O)[C@H](Cc1c[nH]cn1)NC(=O)[C@H](CCC(N)=O)NC(=O)[C@H](CO)NC(=O)[C@H](CCCNC(=N)N)NC(=O)[C@@H](NC(=O)[C@@H](N)CO)[C@@H](C)O)[C@@H](C)O)[C@@H](C)O)C(N)=O [SEQ ID NO:57] (H-STRSQHTQPTPEPST-NH2)
15 | 29 |  |  | SEQ ID NO:47: peptide of the invention that inhibits TNFα; sequence not printed (TSSTDIARPHQIANV)
16 |  | 21 |  | CC(C)C[C@H](NC(=O)[C@H](C)NC(=O)[C@H](CC(C)C)NC(=O)[C@H](CO)NC(=O)[C@H](C)NC(=O)[C@H](CC(N)=O)NC(=O)[C@H](Cc1ccccc1)NC(=O)[C@H](C)NC(=O)[C@H](CCC(N)=O)NC(=O)[C@H](Cc1ccccc1)NC(=O)[C@H](CC(C)C)NC(=O)[C@H](CC(N)=O)NC(=O)[C@H](CCC(=O)O)NC(=O)[C@@H](N)CO)C(=O)N[C@@H](CC(N)=O)C(N)=O [SEQ ID NO:24] (H-SENLFQAFNASLALN-NH2)
17 |  | 56 |  | CC[C@H](C)[C@H](NC(=O)[C@H](CCC(=O)O)NC(=O)[C@@H](NC(=O)[C@H](CCC(N)=O)NC(=O)CN)C(C)C)C(=O)N[C@@H](CO)C(=O)N[C@@H](CO)C(=O)N[C@@H](C)C(=O)N[C@H](C(=O)N[C@H](C(=O)N[C@@H](CC(=O)O)C(=O)N[C@@H](CCCNC(=N)N)C(=O)N[C@@H](CC(=O)O)C(=O)N[C@H](C(=O)N[C@H](C(N)=O)C(C)C)[C@@H](C)O)C(C)C)[C@@H](C)O [SEQ ID NO:8] (H-GQVEISSATVDRDTV-NH2)
18 | 40 |  |  | SEQ ID NO:42: peptide of the invention that inhibits TNFα; sequence not printed (SSDQVETQAATREQN)
19 |  | 58 |  | C[C@H](NC(=O)[C@H](CCC(=O)O)NC(=O)[C@H](CCCNC(=N)N)NC(=O)[C@H](C)NC(=O)[C@@H](N)CC(=O)O)C(=O)N[C@@H](CCC(=O)O)C(=O)N[C@@H](CO)C(=O)NCC(=O)N[C@@H](CO)C(=O)N[C@@H](Cc1ccccc1)C(=O)N[C@H](C(=O)N[C@@H](C)C(=O)N[C@@H](CO)C(=O)N[C@@H](CCC(=O)O)C(=O)N[C@@H](CC(N)=O)C(N)=O)[C@@H](C)O [SEQ ID NO:5] (H-DAREAESGSFTASEN-NH2)
